Target: C3b
Assay: SPR

Kd: 98 nM
B1: TriFu_no_linker (triple fusion complement inhibitor without polyglycine linker between DAF and FH) (other)
chain: DCGLPPDVPNAQPALEGRTSFPEDTVITYKCEESFVKIPGEKDSVICLKGSQWSDIEEFCNRSCEVPTRLNSASLKQPYITQNYFPVGTVVEYECRPGYRREPSLSPKLTCLQNLKWSTAVEFCKKKSCPNPGEIRNGQIDVPGGILFGATISFSCNTGYKLFGSTSSFCLISGSSVQWSDPLPECREIYCPAPPQIDNGIIQGERDHYGYRQSVTYACNKGFTMIGEHSIYCTVNNDEGEWSGPPPECRGGKCGPPPPIDNGDITSFPLSVYAPASSVEYQCQNLYQLEGNKRITCRNGQWSEPPKCLHPCVISREIMENYNIALRWTAKQKLYSRTGESVEFVCKRGYRLSSRSHTLRTTCWDGKLEYPTCAKRGHCQAPDHFLFAKLKTQTNASDFPIGTSLKYECRPEYYGRPFSITCLDNLVWSSPKDVCKRKSCKTPPDPVNGMVHVITDIQVGSRINYSCTTGHRLIGHSSAECILSGNTAHWSTKPPICQRIPCGLPPTIANGDFISTNRENFHYGSVVTYRCNLGSRGRKVFELVGEPSIYCTSNDDQVGIWSGPAPQCII

— PMC11065761 (The Journal of Biological Chemistry, 2024)
